{"source": "patent US9308238B2", "about": "“Compositions and methods for modulating EMT and uses thereof” (Whitehead Institute for Biomedical Research, priority 2010, dated 2016)", "molecules": {"B1": {"name": "SFRP1: Recombinant human SFRP1 protein (R&D Systems), secreted decoy receptor binding canonical and non-canonical Wnt ligands (protein, UniProt Q8N474 32-314, looked up)", "Secreted frizzled-related …": "SEYDYVSFQSDIGPYQSGRFYTKPPQCVDIPADLRLCHNVGYKKMVLPNLLEHETMAEVKQQASSWVPLLNKNCHAGTQVFLCSLFAPVCLDRPIYPCRWLCEAVRDSCEPVMQFFGFYWPEMLKCDKFPEGDVCIAMTPPNATEASKPQGTTVCPPCDNELKSEAIIEHLCASEFALRMKIKEVKKENGDKKIVPKKKKPLKLGPIKKKDLKKLVLYLKNGADCPCHQLDNLSHHFLIMGRKVKSQYLLTAIHKWDKKNKEFKNFMKKMKNHECPTFQSVFK"}}, "format_in_all_cases": "cell-based, human", "key": {"HMLE^24+ cells [1]": {"system": "HMLE^24+ cells", "experiment": "Flow cytometry of CD44/CD24, HMLE^24+ cells after 14 day treatment", "settings": "control 0.2%", "description": "(§1) FIGS. 5A-5H. Concomitant stimulation of Wnt and TGF-beta pathways allows HMLE^24+ cells to enter into a mesenchymal and SC-like state. (FIG. 5A) RT-PCR: N-Cadherin, Zeb1 and Zeb2, L32 was loading control, n=3. Prior RNA isolation, HMLE^24+-shGFP or -shSFRP1 (stable knockdown of SFRP1, FIG. 12A) cells were treated for 3 days with daily doses of indicated factors: anti-DKK1 antibody (10 μg/ml), anti-E-Cadherin antibody (1 μg/ml), TGF-beta 1 (5 ng/ml), Wnt5a (250 ng/ml), (FIG. 5B) Brightfield microscopy: images of control, TGF-beta- and iEMT-cocktail treated HMLE^24+ cells after 14 days of treatment as indicated (see also FIG. 12D). (FIG. 5C) RT-PCR: Zeb1, Zeb2, E-Cadherin and N-Cadherin, L32 was loading control, n=3. After 14 day treatment, cells were expanded in absence of further stimulation for 4 passages. […] (FIG. 5G) Lung metastasis: cells expanded for 8 passages after cessation of treatment as described in (C) were transformed with RAS; 1.0×10^5 cells were injected into the mammary fat pads of mice; GFP-labeled metastases on the surface of the lungs were quantified; *control vs. all other groups, p<0.05, n=5 mice/group. […]\nFluorescent activated cell sorting (FACS) and flow cytometry. […] Samples were sorted on a BD FACSAria SORP and analyzed on a BD LSRII using BD FACSDiva Software (BD Biosciences)."}, "HMLE^24+ cells [2]": {"system": "HMLE^24+ cells", "experiment": "Mammosphere assay, HMLE^24+ cells after 14 day treatment", "description": "as §1, with “passages. Shown are PBS-treated control HMLE^24+-shGFP and HMLE^24+-shSFRP1 cells, two HMLE^24+-shGFP cultures treated with TGF-beta 1 (TGF-β-a and -b), two HMLE^24+-shSFRP1 cultures treated with the iEMT-cocktail (iEMT-a and -b).” for “passages.”"}, "luminal MECs": {"system": "luminal MECs", "experiment": "Mammosphere assay, primary luminal cells after pre-treatment", "settings": "5-day treatment", "source_text": "(§2) FIGS. 7A-7G. Migratory and self-renewal properties in primary MECs: inhibition and induction. (FIG. 7A) Mammosphere Assay: microscopy images of mammospheres and quantification of mammosphere formation by purified basal, luminal and unsorted MEC populations. Primary spheres were allowed to form over a period of 7 days, dissociated and seeded for secondary sphere formation, n(mammosphere)/1000 cells, n=48, (FIG. 7B) Migration Assay: microscopy images of migrated cells in Boyden Chambers and quantification, n=6. (FIG. 7C) Mammosphere Assay: basal cells were seeded into assay after a 5 day pre-treatment with TGF-beta inhibitors A83-01 and […] (SB43, both inhibitors at 10 μM) as well as recombinant SFRP1 (1 μg/ml), n(mammospheres)/1000 cells, n=6. (FIG. 7D) Migration Assay: basal cells were seeded into migration assays treated after 5 day pre-treatment as described in (C), n=24. (FIG. 7E) Mammosphere Assay: luminal cells were seeded into the assay following a 5 day pre-treatment with TGF-beta 1 (5 ng/ml), Wnt5a (250 ng/ml), anti-E-Cadherin antibody (1 μg/ml) plus anti-DKK1 antibody (10 μg/ml), and a cocktail of all factors added together (iEMT-II), n(mammospheres)/1000 cells, n=24. (FIG. 7F) Migration Assay: luminal cells were seeded into Boyden Chambers following a 5 day pre-treatment as described in (E), n=6. […]"}, "MSP cells": {"system": "MSP cells", "experiment": "Mammosphere assay, MSP cells", "description": "FIGS. 3A-3E. Autocrine Signaling controls migration and mammosphere formation.\nMammosphere and tumorsphere assay. Assays were performed as previously described with modifications (Dontu et al., 2003): 1000 cells/well were seeded in 96-well ultra-low adhesion plates (Corning) in MEGM medium containing 1.3% methylcellulose (Stem Cell Technologies) supplemented with 20 ng/ml EGF, 10 ng/ml bFGF (both Sigma) and B27 (Gibco). Primary spheres were dissociated by trypsinization and replated for secondary sphere formation after a period of 5-7 days."}, "basal MECs [3]": {"system": "basal MECs", "experiment": "Migration assay, primary basal cells after pre-treatment", "settings": "5 day pre-treatment", "source_text": "as §2"}, "basal MECs [4]": {"system": "basal MECs", "experiment": "Mammosphere assay, primary basal cells after pre-treatment", "settings": "5 day pre-treatment, assay without further treatment", "source_text": "as §2"}}, "data": [{"molecule": "TGF-beta 1: recombinant TGF-beta 1 protein, used at 5 ng/ml", "values": [{"measurement": "proportion of CD44high/CD24low-negative cells", "setting": "HMLE^24+ cells [1]", "value": 1.5, "unit": "%"}, {"measurement": "increase in mammosphere formation vs untreated control cells", "setting": "HMLE^24+ cells [2]", "value": 10, "unit": "fold"}, {"measurement": "increase in mammosphere-forming cells / efficiency", "setting": "luminal MECs", "value": 3, "unit": "fold"}]}, {"molecule": "B1", "values": [{"measurement": "reduction of primary mammosphere number", "setting": "MSP cells; added daily for 5 days (FIG. 3D)", "value": 40, "unit": "%"}, {"measurement": "reduction of secondary sphere formation", "setting": "MSP cells; treated during primary sphere formation only", "value": 80, "unit": "%"}, {"measurement": "reduction of motility", "setting": "basal MECs [3]", "value": 3, "unit": "fold"}, {"measurement": "reduction of mammosphere formation", "setting": "basal MECs [4]", "value": "80-90%"}]}]}
